Target: rhSTIP1 (stress-induced phosphoprotein 1) (Homo sapiens, UniProt P31948 1-543)
Experiment: aptamer blot on nitrocellulose, chemiluminescence

B1: TOV6 (structured_DNA)
DNA: ATCCAGAGTGACGCAGCACGGCACTCACTCTTTGTTAAGTGGTCTGCTTCTTAACCTTCATCGACACGGTGGCTTA
B1: binds.
